According to article PMC8602370:
Values joined by “and” are separate entries in the source; they are usually repeats but may differ in a detail not shown here. Equal entries are not always repeated.

Experiments:
[1] = target: PARP1 (residues 1 to 1014), P09874; test: SPR; biotinylated DNA SSB captured on a streptavidin chip, PARP1 (40 nM) flowed on to form a PARP1/DNA complex, then HPF1 injected at 62.5-2000 nM with 5 µM EB47 in the buffer; 25 mM HEPES pH 7.4, 250 mM NaCl, 0.1 mM TCEP, 1 mM EDTA, 0.05% Tween20; 1:1 model, steady-state plateaus and kinetic fit; settings: remark: other sources report otherwise
[2] = target: PARP1 (residues 1 to 1014), P09874; test: as above; settings: remark: other sources report otherwise; remark: listed apart in the source

PARP1 (residues 1 to 1014), P09874, sequence (P09874 whole entry, the tested form may be a part): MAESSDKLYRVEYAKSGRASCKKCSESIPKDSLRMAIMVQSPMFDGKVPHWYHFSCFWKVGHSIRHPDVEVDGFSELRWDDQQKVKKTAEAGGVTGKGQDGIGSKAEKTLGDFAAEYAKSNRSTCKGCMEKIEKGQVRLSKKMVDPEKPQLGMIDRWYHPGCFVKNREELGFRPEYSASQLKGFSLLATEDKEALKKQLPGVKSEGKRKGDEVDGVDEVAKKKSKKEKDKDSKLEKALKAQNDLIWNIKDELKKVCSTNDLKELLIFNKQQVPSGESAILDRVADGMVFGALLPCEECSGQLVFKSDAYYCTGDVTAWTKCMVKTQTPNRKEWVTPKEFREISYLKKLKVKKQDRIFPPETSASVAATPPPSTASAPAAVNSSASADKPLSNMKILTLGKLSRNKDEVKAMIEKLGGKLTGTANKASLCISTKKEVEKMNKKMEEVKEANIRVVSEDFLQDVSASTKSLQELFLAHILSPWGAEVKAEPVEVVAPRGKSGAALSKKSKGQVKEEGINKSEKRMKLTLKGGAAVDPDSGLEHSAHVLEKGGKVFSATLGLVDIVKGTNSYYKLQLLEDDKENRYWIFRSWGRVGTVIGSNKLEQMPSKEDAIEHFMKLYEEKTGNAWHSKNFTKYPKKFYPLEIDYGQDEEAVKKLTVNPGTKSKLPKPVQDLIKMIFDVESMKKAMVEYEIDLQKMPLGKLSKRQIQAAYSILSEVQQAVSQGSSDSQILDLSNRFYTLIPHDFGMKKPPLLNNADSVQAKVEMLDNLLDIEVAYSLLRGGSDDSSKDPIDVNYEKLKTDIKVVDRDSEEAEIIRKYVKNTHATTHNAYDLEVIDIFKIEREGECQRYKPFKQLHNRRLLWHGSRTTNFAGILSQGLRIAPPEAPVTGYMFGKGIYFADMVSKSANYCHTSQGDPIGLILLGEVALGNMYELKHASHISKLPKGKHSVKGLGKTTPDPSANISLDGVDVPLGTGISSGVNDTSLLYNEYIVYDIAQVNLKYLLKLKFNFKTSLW

B1: Histone PARylation Factor 1 (HPF1), Q9NWY4 1-346 (natural protein)
chain: MVGGGGKRRPGGEGPQCEKTTDVKKSKFCEADVSSDLRKEVENHYKLSLPEDFYHFWKFCEELDPEKPSDSLSASLGLQLVGPYDILAGKHKTKKKSTGLNFNLHWRFYYDPPEFQTIIIGDNKTQYHMGYFRDSPDEFPVYVGINEAKKNCIIVPNGDNVFAAVKLFLTKKLREITDKKKINLLKNIDEKLTEAARELGYSLEQRTVKMKQRDKKVVTKTFHGAGLVVPVDKNDVGYRELPETDADLKRICKTIVEAASDEERLKAFAPIQEMMTFVQFANDECDYGMGLELGMDLFCYGSHYFHKVAGQLLPLAYNLLKRNLFAEIIEEHLANRSQENIDQLAA
B1 was tested, and the Kd [1] was 480 nM and 617 nM, the koff [1] was 0.071 s⁻¹ and the kon [1] was 112000 M⁻¹ s⁻¹. For the same binder, the Kd [2] was 540 nM and 550 nM, the koff [2] was 0.06 s⁻¹ and the kon [2] was 100000 M⁻¹ s⁻¹.
